Assay results as given in PMC3688580, “Crystal Structure, SAXS and Kinetic Mechanism of Hyperthermophilic ADP-Dependent Glucokinase from Thermococcus litoralis Reveal a Conserved Mechanism for Catalysis” (PLoS ONE, 2013).

Substrate: Nc1ncnc2c1ncn2[C@@H]1O[C@H](COP(=O)(O)OP(=O)(O)O)[C@@H](O)[C@H]1O
Assay: purified protein
Assay type: biochemical, Thermococcus litoralis
Settings: co-substrate D-glucose varied, Mg2+ (constant free Mg2+), 25 mM Hepes pH 7.8, 40 °C, ordered Bi-Bi, first substrate

B1: TlGK (ADP-dependent glucokinase from Thermococcus litoralis) (Thermococcus litoralis DSM 5473) (protein)
chain: MKESLKDRIRLWKRLYVNAFENALNAIPNVKGVLLAYNTNIDAIKYLDKDDLEKRVTEIGKEKVFEIIENPPEKISSIEELLGGILRSIKLGKAMEWFVESEEVRRYLREWGWDELRIGGQAGIMANLLGGVYRIPTIVHVPQNPKLQAELFVDGPIYVPVFEGNKLKLVHPKDAIAEEEELIHYIYEFPRGFQVFDVQAPRENRFIANADDYNARVYMRREFREGFEEITRNVELAIISGLQVLKEYYPDGTTYRDVLDRVESHLNILNRYNVKSHFEFAYTANRRVREALVELLPKFTSVGLNEVELASIMEIIGDEELAKEVLEGHIFSVIDAMNVLMDETGIERIHFHTYGYYLALTQYRGEEVRDALLFASLAAAAKAMKGNLERIEQIRDALSVPTNERAIVLEEELEKEFTEFENGLIDMVDRQLAFVPTKIVASPKSTVGIGDTISSSAFVSEFGMRKR
notes: recombinant, purified from LB culture as in Merino et al. (heat shock, ammonium sulfate, two chromatographic steps); two-domain enzyme
B1 was tested, and the Km was 8.6 µM.
